Reference: patent US20230151084A1, “COMPOSITIONS AND METHODS OF […] CELL RESPONSE” (CASE WESTERN RESERVE UNIVERSITY, priority 2015, published 2023)

System: B cells
Test: BAFF and APRIL B cell growth (viability signaling in B cells)
Type: cell-based
Settings: added C5a, compared with disabling B cell C3aR/C5aR signaling, which suppressed growth (FIG. 3)
From the text: FIGS. 3(A-B) illustrate graphs showing BAFF and APRIL viability signaling in B cells depends on C3aR/C5aR signaling.
(FIGS. 1(A-C) and FIGS. 2(A-B)). […] (FIGS. 3(A-C)). […] (FIGS. 4(A-B)). Following ova immunization, recipients of adoptively transferred C3ar1^−/−C5ar1^−/− B cells produced reduced IgM Ab and no other isotypes.

B1: C5a: complement anaphylatoxin C5a, ligand of the C5a receptor (C5aR), added to B cells (protein, UniProt P01031 678-751, looked up)
C5a anaphylatoxin: TLQKKIEEIAAKYKHSVVKKCCYDGACVNNDETCEQRAARISLGPRCIKAFTECCVVASQLRANISHKDMQLGR
modifications: C5a anaphylatoxin
notes: complement anaphylatoxin C5a, ligand of the C5a receptor (C5aR), added to B cells
**Q.** With B1 as the molecule, how does the “BAFF and APRIL B cell growth” value read?
**A.** Its value is “opposite effect”.
